Source: patent publication US20110239331A1

Key:
[1] = biological target: bee brain calcium channels (Apis mellifera brain neurons, ICa) (Apis mellifera); test: cell-based or functional assay
[2] = biological target: mouse trigeminal (sensory) neuron calcium channels (ICa) (mouse); test: cell-based or functional assay

Substance | EC50 for inhibition of ICa [1] [µM] | preference for insect versus vertebrate calcium channels (against m4) [1] [fold] | EC50 for inhibition of ICa in bee neurons [1] [µM] | EC50 for inhibition of a component of ICa in mouse sensory neurons [2] [µM] | maximum ICa inhibition in mouse sensory neurons [2] [%]
omega-atracotoxin-Hv2a (peptide) | 0.00015 | > 50000 |  |  | 
ω-agatoxin-IVA (from UniProt P30288 1-48) (peptide) |  | 2 | 0.01 | 0.02 | 40
